Data on one substance can be found in article PMC12147903.

Assay [1] has as its target T1, leucine-rich repeat-containing G-protein coupled receptor 4 (Lgr4) (mouse (endogenous in MIN6)) (UniProt A2ARI4).
T1 sequence: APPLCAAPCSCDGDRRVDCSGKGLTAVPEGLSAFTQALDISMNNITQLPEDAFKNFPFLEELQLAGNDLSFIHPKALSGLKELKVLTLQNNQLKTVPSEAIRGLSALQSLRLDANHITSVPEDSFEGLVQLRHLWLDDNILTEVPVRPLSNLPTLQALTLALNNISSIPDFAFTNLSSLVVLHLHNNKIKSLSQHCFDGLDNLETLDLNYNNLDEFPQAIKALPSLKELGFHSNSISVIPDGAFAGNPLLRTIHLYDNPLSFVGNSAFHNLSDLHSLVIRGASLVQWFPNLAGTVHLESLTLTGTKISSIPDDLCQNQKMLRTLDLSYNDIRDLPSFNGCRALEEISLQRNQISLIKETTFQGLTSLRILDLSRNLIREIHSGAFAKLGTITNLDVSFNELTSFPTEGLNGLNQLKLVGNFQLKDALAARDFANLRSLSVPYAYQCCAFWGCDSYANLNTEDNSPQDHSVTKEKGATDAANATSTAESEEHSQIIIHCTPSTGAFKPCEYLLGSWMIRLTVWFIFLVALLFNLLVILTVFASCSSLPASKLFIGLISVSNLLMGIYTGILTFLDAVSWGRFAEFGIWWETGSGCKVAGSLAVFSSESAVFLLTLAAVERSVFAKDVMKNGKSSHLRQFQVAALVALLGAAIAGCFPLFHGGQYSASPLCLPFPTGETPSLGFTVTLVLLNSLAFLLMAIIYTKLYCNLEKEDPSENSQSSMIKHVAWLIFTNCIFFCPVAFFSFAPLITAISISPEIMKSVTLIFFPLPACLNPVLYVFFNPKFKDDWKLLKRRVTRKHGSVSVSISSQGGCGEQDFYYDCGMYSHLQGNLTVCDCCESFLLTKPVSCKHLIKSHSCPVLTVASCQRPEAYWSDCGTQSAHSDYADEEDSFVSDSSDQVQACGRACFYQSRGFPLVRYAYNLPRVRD

For assay [2], the target named is E3 ubiquitin ligase zinc RING finger 3 (Znrf3) (mouse (endogenous in MIN6)) (UniProt Q5SSZ7).
Chain of UniProt Q5SSZ7 (Q5SSZ7 53-913): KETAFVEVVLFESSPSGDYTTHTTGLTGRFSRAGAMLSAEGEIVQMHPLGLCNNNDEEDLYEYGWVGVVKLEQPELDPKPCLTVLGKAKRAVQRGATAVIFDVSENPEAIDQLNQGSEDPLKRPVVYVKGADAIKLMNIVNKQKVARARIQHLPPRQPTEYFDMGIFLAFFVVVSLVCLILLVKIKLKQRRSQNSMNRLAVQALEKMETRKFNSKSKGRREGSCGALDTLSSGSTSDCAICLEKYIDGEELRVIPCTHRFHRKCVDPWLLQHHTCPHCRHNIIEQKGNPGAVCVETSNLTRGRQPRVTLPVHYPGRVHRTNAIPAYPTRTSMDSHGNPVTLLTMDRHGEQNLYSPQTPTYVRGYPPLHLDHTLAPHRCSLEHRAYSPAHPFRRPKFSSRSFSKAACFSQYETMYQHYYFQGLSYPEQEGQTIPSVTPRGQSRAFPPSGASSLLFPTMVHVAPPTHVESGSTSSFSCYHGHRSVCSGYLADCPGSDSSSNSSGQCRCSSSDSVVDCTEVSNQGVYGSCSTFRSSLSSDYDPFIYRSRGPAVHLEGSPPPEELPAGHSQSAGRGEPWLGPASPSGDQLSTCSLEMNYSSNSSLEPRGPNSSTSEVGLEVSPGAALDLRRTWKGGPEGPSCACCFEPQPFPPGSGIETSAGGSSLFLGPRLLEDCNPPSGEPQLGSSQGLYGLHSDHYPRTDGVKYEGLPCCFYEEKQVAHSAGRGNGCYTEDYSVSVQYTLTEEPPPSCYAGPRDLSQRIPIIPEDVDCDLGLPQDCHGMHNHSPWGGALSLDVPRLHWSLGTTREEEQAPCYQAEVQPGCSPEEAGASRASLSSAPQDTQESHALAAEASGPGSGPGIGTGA

Chain of human RSPO1 (Q2MKA7 21-263): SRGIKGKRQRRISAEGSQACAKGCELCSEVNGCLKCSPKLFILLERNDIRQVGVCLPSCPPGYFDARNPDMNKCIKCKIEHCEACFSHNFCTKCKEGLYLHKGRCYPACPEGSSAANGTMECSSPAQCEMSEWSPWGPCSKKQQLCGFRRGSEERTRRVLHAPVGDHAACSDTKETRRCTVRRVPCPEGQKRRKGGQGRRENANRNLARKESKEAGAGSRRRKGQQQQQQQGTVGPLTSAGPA

In the case of “human RSPO1 (from UniProt Q2MKA7 21-263) (ligand)”, the MIN6 cell number after 24 h of incubation with increasing doses of human RSPO1, against controls in assay [1] and in assay [2] was 2.08 fold throughout.
